# Experimental data from patent US12173061B2, “Compositions and methods for treatment of chronic lung diseases” (Board of Regents, The University of Texas System, priority 2021, dated 2024).
# B1: A5 protein: recombinant full length human ALG5 protein (SEQ ID NO: 9) (protein, listed as Homo sapiens)
# chain: MAPLLLQLAVLGAALAAAALVLISIVAFTTATKMPALHRHEEEKFFLNAKGQKETLPSIWDSPTKQLSVVVPSYNEEKRLPVMMDEALSYLEKRQKRDPAFTYEVIVVDDGSKDQTSKVAFKYCQKYGSDKVRVITLVKNRGKGGAIRMGIFSSRGEKILMADADGATKFPDVEKLEKGLNDLQPWPNQMAIACGSRAHLEKESIAQRSYFRTLLMYGFHFLVWFLCVKGIRDTQCGFKLFTREAASRTFSSLHVERWAFDVELLYIAQFFKIPIAEIAVNWTEIEGSKLVPFWSWLQMGKDLLFIRLRYLTGAWRLEQTRKMN
# B2: U5A protein: recombinant full length human UNC5A protein (SEQ ID NO: 5) (protein, listed as Homo sapiens)
# chain: MAVRPGLWPALLGIVLAAWLRGSGAQQSATVANPVPGANPDLLPHFLVEPEDVYIVKNKPVLLVCKAVPATQIFFKCNGEWVRQVDHVIERSTDGSSGLPTMEVRINVSRQQVEKVFGLEEYWCQCVAWSSSGTTKSQKAYIRIAYLRKNFEQEPLAKEVSLEQGIVLPCRPPEGIPPAEVEWLRNEDLVDPSLDPNVYITREHSLVVRQARLADTANYTCVAKNIVARRRSASAAVIVYVDGSWSPWSKWSACGLDCTHWRSRECSDPAPRNGGEECQGTDLDTRNCTSDLCVHTASGPEDVALYVGLIAVAVCLVLLLLVLILVYCRKKEGLDSDVADSSILTSGFQPVSIKPSKADNPHLLTIQPDLSTTTTTYQGSLCPRQDGPSPKFQLTNGHLLSPLGGGRHTLHHSSPTSEAEEFVSRLSTQNYFRSLPRGTSNMTYGTFNFLGGRLMIPNTGISLLIPPDAIPRGKIYEIYLTLHKPEDVRLPLAGCQTLLSPIVSCGPPGVLLTRPVILAMDHCGEPSPDSWSLRLKKQSCEGSWEDVLHLGEEAPSHLYYCQLEASACYVFTEQLGRFALVGEALSVAAAKRLKLLLFAPVACTSLEYNIRVYCLHDTHDALKEVVQLEKQLGGQLIQEPRVLHFKDSYHNLRLSIHDVPSSLWKSKLLVSYQEIPFYHIWNGTQRYLHCTFTLERVSPSTSDLACKLWVWQVEGDGQSFSINFNITKDTRFAELLALESEAGVPALVGPSAFKIPFLIRQKIISSLDPPCRRGADWRTLAQKLHLDSHLSFFASKPSPTAMILNLWEARHFPNGNLSQLAAAVAGLGQPDAGLFTVSEAEC
# B3: A5^ECD: recombinant extracellular domain of A5 (ECD of hALG5) (protein, listed as Homo sapiens)
# chain: MTTATKMPALHRHEEEKFFLNAKGQKETLPSIWDSPTKQLSVVVPSYNEEKRLPVMMDEALSYLEKRQKADPAFTYEVIVVDDGSKDQTSKVAFKYCQKYGSDKVRVITLVKNRGKGGAIRMGIFSSRGEKILMADADGATKFPDVEKLEKGLNDLQPWPNQMAIACGSRAHLEKESIAQRSYFRTLLMYGFHFLVWFLCVKGIRDTQCGFKLFTREAASRTFSSLHVERWAFDVELLYIAQFFKIPIAEIAVNWTEIEGSKLVPFWSWLQMGKDLLFIRLRYLTGAWRLEQTRKMN
# System: BLM-induced pulmonary fibrosis
# Assay: BLM-induced established pulmonary fibrosis in mice, treatment d14-d21
# Format: in vivo
# Conditions: for BLM-induced pulmonary fibrosis (overall): mice, 1.0 U/kg BLM IT, protein 7.5 mg/kg/d IP daily for 7 days starting d14; for BLM-induced pulmonary fibrosis (overall) / lung compliance / lung elastance: d21; for BLM-induced fibrogenic marker proteins (Col1, FN, TN-C, α-SMA) in whole lung homogenates / body weight / collagen and other extracellular matrix deposits (Trichrome staining of lung sections) / fibrogenic marker transcripts in whole lung homogenates / lung weight / lung compliance / lung elastance / whole lung total hydroxyproline: protein 7.5 mg/kg/d IP, 7 days starting d14 after BLM; for lung compliance / lung elastance: flexiVent; for whole lung total hydroxyproline: lung homogenates
# Procedure: FIGS. 9A-9O. M9 peptide and protein mitigated BLM-induced pulmonary fibrosis. Mice exposed to saline or 1.0 U/kg BLM by intratracheal instillation were treated with or without M9 peptide HGHVDPVKTPKI (SEQ ID NO: 4) (10 mg/kg/d) and M9 protein (SEQ ID NO: 1) 7.5 mg/kg/d) via IP injection daily for 7 days starting d14 after BLM injury. FIG. 9A: Representative micro-CT images at d21 after BLM exposure. FIG. 9B: Lung volumes were measured by quantitative-CT renditions. Lung compliance (FIG. 9C) and elastance (FIG. 9D) were measured using a flexiVent system. Lung weights (FIG. 9E) and body weights (FIG. 9F) are presented as bar graphs. Lung homogenates were tested for hydroxyproline (FIG. 9G), soluble collagen (FIG. 9H), pro-fibrogenic marker proteins (FIG. 9I) and mRNAs (FIG. 9J). Bars indicate mean±SD. Statistical significance (*P<0.05, **P<0.01, ***P<0.001 and ****P<0.0001) was assessed by one-way ANOVA with Turkey's multiple comparison. fLfs isolated from IPF lungs treated with PBS or recombinant full length M9 (rM9^FL) protein (2 μg/ml) for 48 h in vitro were tested for pro-fibrogenic proteins (FIG. 9L). fLfs (from IPF lungs) treated with PBS or extracellular domain of rM9^FL protein (rM9^ECD) as in FIG. 9L were tested for pro-fibrogenic proteins (FIG. 9N). The survival the mice treated with rM9^FL is shown FIG. 9M.
# FIGS. 10A-10K. UNC5A (“U5”) peptide/protein mitigated BLM-induced pulmonary fibrosis. Mice exposed to saline or 1.0 U/kg BLM by intratracheal instillation were treated with or without U5 peptide (50 residues, SEQ ID NO: 7) (10 mg/kg/d) and full length U5 protein (SEQ ID NO: 5) (7.5 mg/kg/d) via IP injection daily for 7 days starting d14 after BLM injury. FIG. 10A: Representative micro-CT images at d21 after BLM exposure. FIG. 10B: Lung volumes were measured by quantitative-CT renditions. Lung compliance (FIG. 10C) and elastance (FIG. 10D) were measured using a flexiVent system. Lung weights (FIG. 10E) and body weights (FIG. 10F) are presented as bar graphs. Lung homogenates were tested for hydroxyproline (FIG. 10G), soluble collagen (FIG. 10H), pro-fibrogenic marker proteins (FIG. 10I) and mRNAs (FIG. 10J). Bars indicate mean±SD. Statistical significance (*P<0.05, **P<0.01, ***P<0.001 and ****P<0.0001) was assessed by one-way ANOVA with Turkey's multiple comparison.
# FIGS. 11A-11K. ALG5 (“A5”) protein mitigated BLM-induced pulmonary fibrosis. Mice exposed to saline or 1.0 U/kg BLM by intratracheal instillation were treated with or without A5 protein (SEQ ID NO: 9) (7.5 mg/kg/d) via IP injection daily for 7 days starting d14 after BLM injury. FIG. 11A: Representative micro-CT images at d21 after BLM exposure. FIG. 11B: Lung volumes were measured by quantitative-CT renditions. Lung compliance (FIG. 11C) and elastance (FIG. 11D) were measured using a flexiVent system. Lung weights (FIG. 11E) and body weights (FIG. 11F) are presented as bar graphs. Lung homogenates were tested for hydroxyproline (FIG. 11G), soluble collagen (FIG. 11H), pro-fibrogenic marker proteins (FIG. 11I) and mRNAs (FIG. 11J). Bars indicate mean±SD. *P<0.05, **P<0.01, ***P<0.001 and ****P<0.0001 were obtained by one-way ANOVA with Turkey's multiple comparison.
# FIGS. 12A-12E. WT mice with BLM-PF were treated with or without rM9^ECD (1.5 mg/kg) via intratracheal (IT) instillation daily for 7 d starting d 14 after BLM. Survival (FIG. 12A), body weights (FIG. 12B), lung volumes (FIG. 12C) and lung weights (FIG. 12D) were measured on d 21 post-BLM. Lung homogenates were tested for soluble collagen (FIG. 12E).
# FIGS. 13A-13B. FIG. 13A: fLfs (IPF) treated with PBS or M9^mAb (2 μg/ml) or control IgG, tested for pro-fibrogenic proteins (i) and mRNAs (ii). FIG. 13B: WT mice with BLM-PF were left untreated, or intraperitoneal (IP) injected with control IgG or M9^mAb (2.5 mg/kg) daily for 7 d starting 14 d after IT BLM. Body weights (i) and total lung hydroxyproline (ii), and soluble collagen (iii) were measured. […]
molecule,measurement,setting,value
B1,BLM-induced pulmonary fibrosis (overall),,mitigated
same,BLM-induced pulmonary fibrosis (overall),listed as A5^FL,mitigated
same,BLM-induced pulmonary fibrosis (overall),listed as ALG5 (A5) Protein,Mitigated
same,"BLM-induced fibrogenic marker proteins (Col1, FN, TN-C, α-SMA) in whole lung homogenates",,inhibition
same,body weight,,improvement
same,collagen and other extracellular matrix deposits (Trichrome staining of lung sections),,reduction
same,fibrogenic marker transcripts in whole lung homogenates,,inhibition
same,lung weight,,reduction
same,lung compliance,,improved
same,lung elastance,,improved
same,whole lung total hydroxyproline,,reduction
B2,BLM-induced pulmonary fibrosis (overall),listed as Full Length U5A Protein,Mitigated
same,BLM-induced pulmonary fibrosis (overall),listed as U5a^FL,mitigated
same,BLM-induced pulmonary fibrosis (overall),listed as U5 protein,mitigated
same,"BLM-induced fibrogenic marker proteins (Col1, FN, TN-C, α-SMA) in whole lung homogenates",,inhibition
same,body weight,,improvement
same,collagen and other extracellular matrix deposits (Trichrome staining of lung sections),,reduction
same,fibrogenic marker transcripts in whole lung homogenates,,inhibition
same,lung weight,,reduction
same,lung compliance,,improved
same,lung elastance,,improved
same,whole lung total hydroxyproline,,reduction
B3,BLM-induced pulmonary fibrosis (overall),,mitigated
